From US20090311253A1 (AbbVie / Abbott, published 2009)
Several values for one entry are separate records, joined by “and”; a condition that tells them apart may be missing. Equal entries are not always repeated. One block for each binder: values may come before it.

How the values were obtained:
[1] = target: T1, Recombinant Human IL-6 sR (human, UniProt P08887 20-358, limits assumed); experiment: Biacore SPR
T1 construct: domain: IL-6 sR; soluble receptor; also called IL-6R
T1 sequence (looked up): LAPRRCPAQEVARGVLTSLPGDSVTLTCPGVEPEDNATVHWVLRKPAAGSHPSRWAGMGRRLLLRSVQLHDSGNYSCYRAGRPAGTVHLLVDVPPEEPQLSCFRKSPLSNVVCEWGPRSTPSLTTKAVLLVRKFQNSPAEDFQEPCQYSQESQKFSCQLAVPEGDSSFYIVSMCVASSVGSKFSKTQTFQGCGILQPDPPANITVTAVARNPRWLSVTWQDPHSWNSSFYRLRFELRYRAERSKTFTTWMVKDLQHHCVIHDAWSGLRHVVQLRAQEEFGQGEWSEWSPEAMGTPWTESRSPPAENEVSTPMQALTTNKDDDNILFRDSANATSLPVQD
Method: (§1) The BIACORE assay (Biacore, Inc, Piscataway, N.J.) determines the affinity of antibodies or DVD-Ig with kinetic measurements of on-rate and off-rate constants. Binding of antibodies or DVD-Ig to a target antigen (for example, a purified recombinant target antigen) is determined by surface plasmon resonance-based measurements with a BiacoreR 1000 or 3000 instrument (Biacore® AB, Uppsala, Sweden) using running HBS-EP (10 mM HEPES [pH 7.4], 150 mM NaCl, 3 mM EDTA, and 0.005% surfactant P20) at 25° C. All chemicals are obtained from Biacore® AB (Uppsala, Sweden) or otherwise from a different source as described in the text. For example, approximately 5000 RU of goat anti-mouse IgG, (Fcγ), fragment specific polyclonal antibody (Pierce Biotechnology Inc, Rockford, Ill.) diluted in 10 mM sodium acetate (pH 4.5) is directly immobilized across a CM5 research grade biosensor chip using a standard amine coupling kit according to manufacturer's instructions and procedures at 25 μg/ml. Unreacted moieties on the biosensor surface are blocked with ethanolamine. Modified carboxymethyl dextran surface in flowcell 2 and 4 is used as a reaction surface. Unmodified carboxymethyl dextran without goat anti-mouse IgG in flow cell 1 and 3 is used as the reference surface. For kinetic analysis, rate equations derived from the 1:1 Langmuir binding model are fitted simultaneously to association and dissociation phases of all eight injections (using global fit analysis) with the use of Biaevaluation 4.0.1 software. Purified antibodies or DVD-Ig are diluted in HEPES-buffered saline for capture across goat anti-mouse IgG specific reaction surfaces. Antibodies or DVD-Ig to be captured as a ligand (25 μg/ml) are injected over reaction matrices at a flow rate of 5 μl/min. The association and dissociation rate constants, kₒₙ (M⁻¹s⁻¹) and koff (s⁻¹) are determined under a continuous flow rate of 25 μl/min. Rate constants are derived by making kinetic binding measurements at different antigen concentrations ranging from […]. The equilibrium dissociation constant (M) of the reaction between antibodies or DVD-Igs and the target antigen is then calculated from the kinetic rate constants by the following formula: KD=koff/kₒₙ. Binding is recorded as a function of time and kinetic rate constants are calculated.

[2] = target: T1, Recombinant Human IL-6 sR; experiment: direct bind ELISA
Method: (§2) Enzyme Linked Immunosorbent Assays to screen for antibodies that bind a desired target antigen were performed as follows. High bind ELISA plates (Corning Costar # 3369, Acton, Mass.) were coated with 100 μL/well of 10 μg/ml of desired target antigen (R&D Systems, Minneapolis, Minn.) or desired target antigen extra-cellular domain/FC fusion protein (R&D Systems, Minneapolis, Minn.) or monoclonal mouse anti-polyhistidine antibody (R&D Systems # MAB050, Minneapolis, Minn.) in phosphate buffered saline (10×PBS, Abbott Bioresearch Center, Media Prep# MPS-073, Worcester, Mass.) overnight at 4° C. Plates were washed four times with PBS containing 0.02% Tween 20. Plates were blocked by the addition of 300 μL/well blocking solution (non-fat dry milk powder, various retail suppliers, diluted to 2% in PBS) for ½ hour at room temperature. Plates were washed four times after blocking with PBS containing 0.02% Tween 20.
(§3) Plates were washed 4 times with PBS containing 0.02% Tween 20.
(§4) One hundred microliters of enhanced TMB solution (Neogen Corp. #308177, K Blue, Lexington, Ky.) was added to each well and incubated for 10 minutes at room temperature. The reaction was stopped by the addition of 50 μL 1N sulphuric acid. Plates were read spectrophotometrically at a wavelength of 450 nm.

IL-6R on cells [3] = target: T2, IL-6R on cells (UniProt P08887 20-468, limits assumed); experiment: cell-based or functional assay
T2 sequence (looked up): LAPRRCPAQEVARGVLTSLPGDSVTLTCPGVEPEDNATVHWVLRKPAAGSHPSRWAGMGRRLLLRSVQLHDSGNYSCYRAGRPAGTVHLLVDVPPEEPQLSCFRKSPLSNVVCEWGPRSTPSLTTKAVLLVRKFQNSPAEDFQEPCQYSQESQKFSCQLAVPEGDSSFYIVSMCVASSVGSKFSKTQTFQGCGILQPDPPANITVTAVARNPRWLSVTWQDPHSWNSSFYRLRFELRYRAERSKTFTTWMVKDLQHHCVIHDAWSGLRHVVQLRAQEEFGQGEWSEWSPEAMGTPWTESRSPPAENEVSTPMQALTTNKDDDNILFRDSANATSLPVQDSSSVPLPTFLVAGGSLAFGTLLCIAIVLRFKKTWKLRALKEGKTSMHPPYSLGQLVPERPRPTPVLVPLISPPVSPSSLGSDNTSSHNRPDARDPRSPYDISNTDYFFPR

IL-6R on cells [4] = target: T2, IL-6R on cells; experiment: flow cytometry on cells, 2 µg/mL
Method: Stable cell lines overexpressing a cell-surface antigen of interest or human tumor cell lines were harvested from tissue culture flasks and resuspended in phosphate buffered saline (PBS) containing 5% fetal bovine serum (PBS/FBS). Prior to staining, human tumor cells were incubated on ice with (100 μl) human IgG at 5 μg/ml in PBS/FCS. 1−5×10⁵ cells were incubated with antibody or DVD-Ig (2 μg/mL) in PBS/FBS for 30-60 minutes on ice. […] After 30 minutes incubation on ice, cells were washed twice and resuspended in PBS/FBS. Fluorescence was measured using a Becton Dickinson FACSCalibur (Becton Dickinson, San Jose, Calif.).
The geometric mean is the n root of the multiplication product of n fluorescent signals (a1×a2×a3 . . . an). With log-transformed data the geometric mean is used to normalize the weighting of the data distribution.

Recombinant Human IL-9 = Recombinant Human IL-9 (human, UniProt P15248 19-144); experiment: Biacore SPR
Method: as §1

[5] = target: T3, Recombinant Human TRANCE/RANKL/TNFSF 11 (human, UniProt O14788 69-317); experiment: Biacore SPR
T3 construct: extracellular domain
T3 sequence (looked up): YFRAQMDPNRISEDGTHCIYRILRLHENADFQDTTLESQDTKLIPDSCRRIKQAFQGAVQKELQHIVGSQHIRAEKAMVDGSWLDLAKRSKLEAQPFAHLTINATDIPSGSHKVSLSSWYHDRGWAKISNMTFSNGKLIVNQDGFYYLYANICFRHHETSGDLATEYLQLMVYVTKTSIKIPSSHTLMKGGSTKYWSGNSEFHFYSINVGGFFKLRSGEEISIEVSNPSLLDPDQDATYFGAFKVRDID
Method: as §1

Recombinant Human IL-1β [6] = target: T4, Recombinant Human IL-1β (human, UniProt P01584 117-269); experiment: Biacore SPR
T4 construct: also called IL-1b; IL-1B
Method: as §1

[7] = target: T3, Recombinant Human TRANCE/RANKL/TNFSF 11; experiment: direct bind ELISA
Method: as §2, §3, §4

Recombinant Human IL-1β [8] = target: T4, Recombinant Human IL-1β; experiment: direct bind ELISA
Method: as §2, §3, §4

Recombinant Human IL-1β [9] = target: T4, Recombinant Human IL-1β; experiment: cell-based or functional assay
Recombinant Human IL-4 [10] = target: T5, Recombinant Human IL-4 (human, UniProt P05112 25-153); experiment: Biacore SPR
T5 sequence (looked up): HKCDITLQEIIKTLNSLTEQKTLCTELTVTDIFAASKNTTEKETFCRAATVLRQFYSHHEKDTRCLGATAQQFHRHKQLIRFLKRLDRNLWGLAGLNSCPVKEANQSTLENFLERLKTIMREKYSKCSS
Method: as §1

Recombinant Human IL-4 [11] = target: T5, Recombinant Human IL-4; experiment: direct bind ELISA
Method: as §2, §3, §4

Recombinant Human IL-4 [12] = target: T5, Recombinant Human IL-4; experiment: cell-based or functional assay
Recombinant Human IL-13 [13] = target: T6, Recombinant Human IL-13 (human, UniProt P35225 35-146, limits assumed); experiment: Biacore SPR
Method: as §1

Recombinant Human IL-13 [14] = target: T6, Recombinant Human IL-13; experiment: cell-based or functional assay

Recombinant Human IL-9, sequence (P15248 19-144 limits assumed): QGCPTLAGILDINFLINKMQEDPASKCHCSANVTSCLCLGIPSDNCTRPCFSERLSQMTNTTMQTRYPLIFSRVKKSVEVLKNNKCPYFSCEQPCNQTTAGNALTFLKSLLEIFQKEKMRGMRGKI
T6 sequence (P35225 35-146 limits assumed): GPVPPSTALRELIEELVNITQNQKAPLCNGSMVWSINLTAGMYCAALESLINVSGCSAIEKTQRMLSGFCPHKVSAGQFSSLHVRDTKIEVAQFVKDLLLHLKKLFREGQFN

B1: AB054 (antibody, human IgG1, kappa, V domains shown)
VH: EVQLQESGPGLVRPSQTLSLTCTVSGYSITSDHAWSWVRQPPGRGLEWIGYISYSGITTYNPSLKSRVTMLRDTSKNQFSLRLSSVTAADTAVYYCARSLARTTAMDYWGQGSLVTVSS
VL: DIQMTQSPSSLSASVGDRVTITCRASQDISSYLNWYQQKPGKAPKLLIYYTSRLHSGVPSRFSGSGSGTDFTFTISSLQPEDIATYYCQQGNTLPYTFGQGTKVEIKR
notes: vectors V1 and V2; also called anti-IL-6R parent antibody
- Kd [1]: 0.614 nM
- koff [1]: 0.000206 s⁻¹
- kon [1]: 336000 M⁻¹ s⁻¹
- EC50 [2]: 1.42 nM and 1.24 nM and 1.31 nM
- IL-6 induced pSTAT3 in TF-1 cells, EC50 (IL-6R on cells [3]): 70 pM
- FACS Geometric Mean (IL-6R on cells [4]): 5.94

B4: AB027 (antibody, human IgG1, kappa, V domains shown)
VH: QVTLRESGPALVKPTQTLTLTCTFSGFSLSTSGMGVSWIRQPPGKGLEWLAHIYWDDDKRYNPSLKSRLTISKDTSRNQVVLTMTNMDPVDTATYYCARRETVFYWYFDVWGRGTPVTVSS
VL: DIVLTQSPSSLSASVGDRVTITCKASQSVDYDGDSYMNWYQQKPGKAPKLLIYAASNLESGIPSRFSGSGSGTDFTFTISSLQPEDIATYYCQQSNEDPPTFGQGTKVEIKR
notes: vectors V1 and V2; also called anti-IL-4 parent antibody
- Kd (Recombinant Human IL-4 [10]): 0.0219 nM
- koff (Recombinant Human IL-4 [10]): 0.00013 s⁻¹
- kon (Recombinant Human IL-4 [10]): 5.92e+06 M⁻¹ s⁻¹
- EC50 (Recombinant Human IL-4 [11]): 5.81 nM
- IL-4 Neutralization Assay EC50 (A549 cells, hTARC) (Recombinant Human IL-4 [12]): 0.21 nM

B5: AB051 (antibody, human IgG1, kappa, V domains shown)
VH: EVTLRESGPGLVKPTQTLTLTCTLYGFSLSTSDMGVDWIRQPPGKGLEWLAHIWWDDVKRYNPALKSRLTISKDTSKNQVVLKLTSVDPVDTATYYCARTVSSGYIYYAMDYWGQGTLVTVSS
VL: DIQMTQSPSSLSASVGDRVTISCRASQDIRNYLNWYQQKPGKAPKLLIFYTSKLHSGVPSRFSGSGSGTDYTLTISSLQPEDIATYYCQQGLTPPLTFGGGTKVEIKR
notes: vectors V1 and V2
- kon (Recombinant Human IL-13 [13]): 2.14e+06 M⁻¹ s⁻¹
- IL-13 Neutralization Assay EC50 (A549 cells, hTARC) (Recombinant Human IL-13 [14]): 0.1 nM

Now from value to binder:

- Kd (Recombinant Human IL-9): 9.93 pM
- koff (Recombinant Human IL-9): 5.62e-05 s⁻¹
- kon (Recombinant Human IL-9): 5.66e+06 M⁻¹ s⁻¹
B2: AB056 (antibody, human IgG1, kappa, V domains shown)
VH: QVQLQQSGAELMKPGASVKLSCKATGYTFTGSWIEWIKQRPGHGLEWIGQILPGSGSAYYNEKFKGKATFTADTSSKTVYIQLISLTTEDSAIYYCAREDNYGSSSLAYWGQGTLLTVSA
VL: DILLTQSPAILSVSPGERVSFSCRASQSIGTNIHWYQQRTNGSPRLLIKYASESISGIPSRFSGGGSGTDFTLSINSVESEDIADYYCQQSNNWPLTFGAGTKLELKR
notes: vectors V1 and V2

- Kd [5]: < 8.77 pM
- koff [5]: < 1e-06 s⁻¹
- kon [5]: 114000 M⁻¹ s⁻¹
- Kd (Recombinant Human IL-1β [6]): < 0.117 nM
- koff (Recombinant Human IL-1β [6]): < 1e-06 s⁻¹
- kon (Recombinant Human IL-1β [6]): 8520 M⁻¹ s⁻¹
- EC50 [7]: 0.4 nM
- EC50 (Recombinant Human IL-1β [8]): 4.46 µM
- IL-1β Neutralization Assay EC50 (MRC5 cells, hIL-8) (Recombinant Human IL-1β [9]): 4.29 nM
B3: DVD126 (bispecific antibody, human IgG1, kappa)
heavy: not shown
light: EIVLTQSPGTLSLSPGERATLSCRASQSVRGRYLAWYQQKPGQAPRLLIYGASSRATGIPDRFSGSGSGTDFTLTISRLEPEDFAVFYCQQYGSSPRTFGQGTKVEIKRTVAAPEIVLTQSPDFQSVTPKEKVTITCRASQSIGSSLHWYQQKPDQSPKLLIKYASQSFSGVPSRFSGSGSGTDFTLTINSLEAEDAAAYYCHQSSSLPFTFGPGTKVDIKRTVAAPSVFIFPPSDEQLKSGTASVVCLLNNFYPREAKVQWKVDNALQSGNSQESVTEQDSKDSTYSLSSTLTLSKADYEKHKVYACEVTHQGLSSPVTKSFNRGEC
notes: outer AB018, inner AB032; vectors V1, V2

- EC50 [2]: 0.96 nM
- EC50 [7]: 0.53 nM
- IL-6 induced pSTAT3 in TF-1 cells, EC50 (IL-6R on cells [3]): 0.16 nM
- FACS Geometric Mean (IL-6R on cells [4]): 8.43
B6: DVD129 (bispecific antibody, human IgG1, kappa)
heavy: not shown
light: DIQMTQSPSSLSASVGDRVTITCRASQDISSYLNWYQQKPGKAPKLLIYYTSRLHSGVPSRFSGSGSGTDFTFTISSLQPEDIATYYCQQGNTLPYTFGQGTKVEIKRTVAAPEIVLTQSPGTLSLSPGERATLSCRASQSVRGRYLAWYQQKPGQAPRLLIYGASSRATGIPDRFSGSGSGTDFTLTISRLEPEDFAVFYCQQYGSSPRTFGQGTKVEIKRTVAAPSVFIFPPSDEQLKSGTASVVCLLNNFYPREAKVQWKVDNALQSGNSQESVTEQDSKDSTYSLSSTLTLSKADYEKHKVYACEVTHQGLSSPVTKSFNRGEC
notes: vectors V1, V2; also called IL-6R and RANKL DVD-Ig
